target: spp_human HM13 (UniProt Q8TCT9)
Sequence (Q8TCT9 whole entry): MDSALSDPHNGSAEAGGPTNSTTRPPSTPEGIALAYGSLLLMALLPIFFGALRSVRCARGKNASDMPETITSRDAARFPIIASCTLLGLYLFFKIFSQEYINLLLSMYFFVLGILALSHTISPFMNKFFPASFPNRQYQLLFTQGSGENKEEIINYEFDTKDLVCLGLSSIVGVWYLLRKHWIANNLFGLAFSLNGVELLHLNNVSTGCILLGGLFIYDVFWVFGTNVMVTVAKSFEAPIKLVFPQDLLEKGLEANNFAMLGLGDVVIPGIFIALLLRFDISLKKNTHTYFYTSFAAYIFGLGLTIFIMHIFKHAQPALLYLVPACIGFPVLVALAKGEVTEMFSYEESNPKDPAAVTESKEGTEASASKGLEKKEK

Protein disulfide-isomerase (Homo sapiens), P07237 C400S, sequence (P07237 whole entry C400S): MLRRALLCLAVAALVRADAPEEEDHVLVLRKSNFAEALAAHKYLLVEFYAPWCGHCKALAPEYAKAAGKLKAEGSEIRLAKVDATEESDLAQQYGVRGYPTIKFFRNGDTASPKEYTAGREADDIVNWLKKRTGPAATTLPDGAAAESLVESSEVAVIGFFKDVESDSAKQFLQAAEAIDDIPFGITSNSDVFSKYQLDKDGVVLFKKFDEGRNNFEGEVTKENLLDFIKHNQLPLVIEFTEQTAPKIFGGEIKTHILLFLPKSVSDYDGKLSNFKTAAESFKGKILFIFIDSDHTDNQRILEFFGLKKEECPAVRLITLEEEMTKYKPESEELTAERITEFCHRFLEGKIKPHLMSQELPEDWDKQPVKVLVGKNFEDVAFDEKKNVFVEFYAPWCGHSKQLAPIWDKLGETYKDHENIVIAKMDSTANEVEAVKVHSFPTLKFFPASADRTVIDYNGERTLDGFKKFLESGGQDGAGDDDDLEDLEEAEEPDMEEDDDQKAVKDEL
Protein disulfide-isomerase (Homo sapiens), P07237 C53S, sequence (P07237 whole entry C53S): as the sequence (P07237 whole entry C400S) above, with C53S, S400C counted along it
Protein disulfide-isomerase (Homo sapiens), P07237 F275W, sequence (P07237 whole entry F275W): as the sequence (P07237 whole entry C400S) above, with F275W, S400C counted along it
Protein disulfide-isomerase (Homo sapiens), P07237 C397S, sequence (P07237 whole entry C397S): as the sequence (P07237 whole entry C400S) above, with C397S, S400C counted along it
Protein disulfide-isomerase (Homo sapiens), P07237 C56S, sequence (P07237 whole entry C56S): as the sequence (P07237 whole entry C400S) above, with C56S, S400C counted along it
Protein disulfide-isomerase (Homo sapiens), P07237 I289A, sequence (P07237 whole entry I289A): as the sequence (P07237 whole entry C400S) above, with I289A, S400C counted along it

| Substance | effect of a mutation on the interaction |
| --- | --- |
| Protein disulfide-isomerase (Homo sapiens), P07237 C53S | decreasing interaction |
| Protein disulfide-isomerase (Homo sapiens), P07237 C400S | decreasing interaction |
| Protein disulfide-isomerase (Homo sapiens), P07237 C397S | decreasing interaction |
| Protein disulfide-isomerase (Homo sapiens), P07237 C56S | decreasing interaction |

target: spp_human HM13 (UniProt Q8TCT9); remark: another data set of the same source

| Substance | effect of a mutation on the interaction |
| --- | --- |
| Protein disulfide-isomerase (Homo sapiens), P07237 I289A | increasing interaction |
| Protein disulfide-isomerase (Homo sapiens), P07237 F275W | increasing interaction |

— IntAct's records for PubMed 19942855
